Data from the supplement of paper PMC7125110.
± gives the standard error. This sample holds only a part of the variants without activity.

B1: glmS ribozyme (parent)
chain: AUAAAAGCGCCAGAACUACAGAAAUGUAGUUGACGAGGAGGAGGUUUAUCGAAUUUUCGGCGGAUGCCUCCAAA

Variants of: B1
Test: self-cleavage kobs at 2500 uM GlcN6P; higher = faster cleavage; RNA array
Conditions: with glucosamine-6-phosphate
How it was run: (§1)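 Tracking of barcoded ribozyme variants used a hybridised Cy3 probe at 37 °C, after in situ transcription by E. coli RNA polymerase on sequenced MiSeq chips. The flowed solution held 40 μM to 10 mM glucosamine-6-phosphate in HEPES/KCl/Mg(OAc)2 buffer, and imaging ran over ~14 h. kobs was taken from exponential decay fits of normalised per-tile medians, and kcat and KM from weighted Michaelis–Menten fits.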

Variant	self-cleavage kobs at 2500 uM GlcN6P [s⁻¹]
AUAAAAGCGCCAGAACUACAGAAAUGUAGUUGACGAGAAGGAGGCUUAUCGUAUUUUCGGCGGAUGCCUCCAAA	< 1e-05
AUAAAAGCGCCAGAACUACAGAAAUGUAGUUGACGAGUAGGAAGUUCAUCGAAUUUUCGGCGGAUGUCUCCAAA	< 1e-05
AUAAAAGCGCCAGAACUACAGAAAUGUAGUUGACGAGGCGGCGGUUUAUCGAAUUUUCGGCGGAUACCUCCAAA	0.00014 ± 4.5e-05
AUAAAAGCGCCAGAACUACAGAAAUGUAGUUGACGAGGCGCAGGUUUAUCGAAUUUUCGGCGGAUUCCUCCAAA	< 1e-05
AUAAAAGCGCCAGAACUACAGAAAUGUAGUUGACGAGCAGUAGGUUUAUCGACUUUUCGGCGGAUGCGUCCAAA	< 1e-05
AUAAAAGCGCCAGAACUACAGAAAUGUAGUUGACGAGGAAGAGGUUCAUCGAACUUUCGGCGGAUGCCUCCAAA	0.00058 ± 0.00013
AUAAAAGCGCCAGAACUACAGAAAUGUAGUUGACGAGGUGGUGGUUAAUCGAAUUUUCGGCGGAUGCCUCCAAA	0.0025 ± 0.0012
AUAAAAGCGCCAGAACUACAGAAAUGUAGUUGACGAGGUGGAGGUUUAUCGAAUUUUCGGCGGAUACCUGCAAA	0.000771 ± 0.00023
AUAAAAGCGCCAGAACUACAGAAAUGUAGUUGACGAGGAAGAGGUUCAUCGAAUUUUUGGCGGAUGCCUCCAAA	< 1e-05
AUAAAAGCGCCAGAACUACAGAAAUGUAGUUGACGAGGACUAGGUUUAUCGAAUUUUCGGCGGAUGCCUCAAAA	4.86e-05 ± 1.8e-05
AUAAAAGCGCCAGAACUACAGAAAUGUAGUUGACGAGAAGGAGGUUUAUCGAAUUUUCGGCAGAUGGCUCCAAA	< 1e-05
AUAAAAGCGCCAGAACUACAGAAAUGUAGUUGACGAGGGGGAGGUUUAUCGAAUGUUCGGCGGGUGCCUCCAAA	0.00731 ± 0.0025
AUAAAAGCGCCAGAACUACAGAAAUGUAGUUGACGAGGUGGAGGUUUAUCCAAUUUUCGGCGGAUGCCUCGAAA	< 1e-05
AUAAAAGCGCCAGAACUACAGAAAUGUAGUUGACGAGUAGGAGGUUUAUCGAAUUUACGCCGGAUUCCUCCAAA	< 1e-05
AUAAAAGCGCCAGAACUACAGAAAUGUAGUUGACGAUGAGGAGGUUUAGCGAAUUUCCGGCGGAUGCCUCCAAA	< 1e-05
AUAAAAGCGCCAGAACUACAGAAAUGUAGUUGACGAUGAGGAGGUGUAUCGUAUUUACGGCGGAUGCCUCCAAA	< 1e-05

Variant	self-cleavage kobs at 2500 uM GlcN6P [s⁻¹]
AUAAAAGCGCCAGAACUACAGAAAUGUAGUUGACGAGGGGGAGGUUUAUCGACUUUUCGGCGGAUGCCUACAAA	0.000143 ± 4.2e-05
AUAAAAGCGCCAGAACUACAGAAAUGUAGUUGACGAGGCGGAGGUUCAUCGAAUAUUCGGCGGAUGCCUCCAAA	0.000971 ± 0.00023
AUAAAAGCGCCAGAACUACAGAAAUGUAGUUGACGAGUGGGAGGUUUAUCGAAUUUUUUGCGGAUGCCUCCAAA	< 1e-05
AUAAAAGCGCCAGAACUACAGAAAUGUAGUUGACGAGCAGGAGGUUCAACGAAUUUUCGGCGGAUGCCUCCAAA	< 1e-05
AUAAAAGCGCCAGAACUACAGAAAUGUAGUUGACGAGGGGGUGGUUUAUCGAAUUUUCGGCGGAUGUCUCCAAA	9.25e-05 ± 2.6e-05
AUAAAAGCGCCAGAACUACAGAAAUGUAGUUGACGAGGGGUAGGUUUAUCGAAUUUUCGGCGGAUGCCACCAAA	5.05e-05 ± 2.2e-05
AUAAAAGCGCCAGAACUACAGAAAUGUAGUUGACGAGCUGGAGGUUUAUCGAGUUUUCGGCGGACGCCUCCAAA	< 1e-05
AUAAAAGCGCCAGAACUACAGAAAUGUAGUUGACGAGGCGGGGGUUUAUCGUAUUUUCGGCGGAUGCCUCCAAA	6.4e-05 ± 1.5e-05
AUAAAAGCGCCAGAACUACAGAAAUGUAGUUGACGAGUAGGAGGAUUAUCGAAUUUUCGGCGGAUGCCUCAAAA	< 1e-05
AUAAAAGCGCCAGAACUACAGAAAUGUAGUUGACGAGCAGUGGGUUUAUCGAAUUUUCGGCGGAUGCCUCCAAA	< 1e-05
AUAAAAGCGCCAGAACUACAGAAAUGUAGUUGACGAGUAGGAGGUUUAUCGAAUAUUCGGCAGAUGCCGCCAAA	0.0012 ± 0.00058
AUAAAAGCGCCAGAACUACAGAAAUGUAGUUGACGAGGAAGAGGUUUAUCGAAUUUUCGGCGGACGCCUCCAAA	0.000394 ± 0.00015
AUAAAAGCGCCAGAACUACAGAAAUGUAGUUGACGAGGGGGAGUUUUAUCGACUUUUCGGCGGAUGCCUCCAAA	0.000157 ± 4.5e-05
AUAAAAGCGCCAGAACUACAGAAAUGUAGUUGACGAGGAAGAGAUUUAUCGAAUUUUCGGCGGAUGCCUCCAAA	4.13e-05 ± 1.2e-05
AUAAAAGCGCCAGAACUACAGAAAUGUAGUUGACGAGGGGGAGGUUUAUCGAAUUUACGGAGGAUGCCUCCAAA	< 1e-05
AUAAAAGCGCCAGAACUACAGAAAUGUAGUUGACGAGUAGGAGGUUUAUGGAAUUUUCGGCGCAUGCCUCCAAA	7.85e-05 ± 2.7e-05

Variants of: B1
Test: self-cleavage kobs at 10000 uM GlcN6P; higher = faster cleavage; RNA array
Conditions: with glucosamine-6-phosphate
How it was run: as §1

Variant	self-cleavage kobs at 10000 uM GlcN6P [s⁻¹]
AUAAAAGCGCCAGAACUACAGAAAUGUAGUUGACGAGGUGGUGGUUAAUCGAAUUUUCGGCGGAUGCCUCCAAA	0.00362 ± 0.0011
AUAAAAGCGCCAGAACUACAGAAAUGUAGUUGACGAGGACUAGGUUUAUCGAAUUUUCGGCGGAUGCCUCAAAA	0.000104 ± 1.6e-05
AUAAAAGCGCCAGAACUACAGAAAUGUAGUUGACGAGGGGGAGGUUUAUCGACUUUUCGGCGGAUGCCUACAAA	0.000165 ± 4.3e-05
AUAAAAGCGCCAGAACUACAGAAAUGUAGUUGACGAGGAAGAGGUUUAUCGAAUUUUCGGCGGACGCCUCCAAA	0.000296 ± 6.1e-05
